Experimental data reported in paper PMC6497953.

Target: PilE2, major pilin of Streptococcus sanguinis 2908 type IV pili (mature, untagged) (Streptococcus sanguinis 2908)
Test: top-down mass spectrometry of purified filaments; purified Tfp from S. sanguinis WT, intact protein mass spectra on an LTQ Orbitrap; ratio of the two major proteoforms

PilE1, major pilin of Streptococcus sanguinis 2908 type IV pili (mature, untagged) (natural protein)
stoichiometry N (PilE1 per PilE2): 1.33
